Each block holds one molecule with its values, some of them ahead of it.
Tests used:
[1] = biological target: Cys-min α7 nAChR (human α7 nAChR containing only the C128-C142 and C190-C191 cysteines) (human) (UniProt P36544); experiment: SPR
[2] = biological target: wild-type human α7 nicotinic acetylcholine receptor (human, UniProt P36544 23-502); experiment: SPR

Molecule: PDZ domain of PICK1 (first 126 amino acids of PICK1) (from UniProt Q9NRD5 1-126) (domain or fragment)
Kd [1]: 2600 nM

Kd [2]: 2500 ± 400 nM
B1: PDZ domain of PICK1 (first 126 amino acids of PICK1) (domain or fragment, UniProt Q9NRD5 1-126, looked up)
chain: MFADLDYDIEEDKLGIPTVPGKVTLQKDAQNLIGISIGGGAQYCPCLYIVQVFDNTPAALDGTVAAGDEITGVNGRSIKGKTKVEVAKMIQEVKGEVTIHYNKLQADPKQGMSLDIVLKKVKHRLV

— publication PMC7057392 (ACS chemical neuroscience, 2020)
